Columns and labels:
[1] = biological target: T1, BRD4 SBC motif-deleted mutant (human, UniProt O60885 1-1362, limits assumed); test: co-IP with anti-FLAG antibody, 293T cells
T1 construct: Deletion mutant; also called FLAG-BRD4 mutant; not shown: FLAG tag

[2] = biological target: T2, BRD3 SBC motif-deleted mutant (human, UniProt Q15059 1-726, limits assumed); test: co-IP with anti-FLAG antibody, 293T cells
T2 construct: Deletion mutant; also called FLAG-BRD3 mutant; not shown: FLAG tag

[3] = biological target: T3, BRD2 SBC motif-deleted mutant (human, UniProt P25440 1-801, limits assumed); test: co-IP with anti-FLAG antibody, 293T cells
T3 construct: Deletion mutant; also called FLAG-BRD2 mutant; not shown: FLAG tag

BRD2 = biological target: T4, BRD2 (human, UniProt P25440 1-801); test: co-immunoprecipitation, 293T (ectopic) and LNCaP (endogenous) cells
T4 construct: also called bromodomain containing 2; FLAG-BRD2
Experimental: (§1) To immunoprecipitate the ectopically expressed FLAG-tagged proteins, transfected cells were lysed 24 hours post-transfection in BC100 buffer. The whole-cell lysates were immunoprecipitated with the monoclonal anti-FLAG antibody-conjugated M2 agarose beads (Sigma-Aldrich) at 4° C. overnight. After three washes with lysis buffer, followed by two washes with BC100 buffer, the bound proteins were eluted using FLAG-Peptide (Sigma-Aldrich) prepared in BC100 for 3 hours at 4° C. The eluted protein sample was resolved by SDS-PAGE. To immunoprecipitate the endogenous proteins, cells were lysed with 1× cell lysis buffer (Cell Signaling Technology), and the lysate was centrifuged. The supernatant was precleared with protein AIG beads (Sigma-Aldrich) and incubated with the indicated antibody and protein A/G beads at 4° C. overnight. Beads were washed five times with lysis buffer and resuspended in sample buffer and analyzed by SDS-PAGE.
(§2) To identify new degradation substrates of SPOP, yeast two-hybrid screens using the full-length SPOP as bait were performed.

BRD3 = biological target: T5, BRD3 (human, UniProt Q15059 1-726); test: as above
T5 construct: also called bromodomain containing 3; FLAG-BRD3
Experimental: as §1, §2

binding result [1]: no binding
binding result [2]: no binding
binding result [3]: no binding
binding result (BRD2): binds
binding result (BRD3): binds
B1: SPOP, wild-type (other, human, UniProt O43791 1-374, looked up)
chain: MSRVPSPPPPAEMSSGPVAESWCYTQIKVVKFSYMWTINNFSFCREEMGEVIKSSTFSSGANDKLKWCLRVNPKGLDEESKDYLSLYLLLVSCPKSEVRAKFKFSILNAKGEETKAMESQRAYRFVQGKDWGFKKFIRRDFLLDEANGLLPDDKLTLFCEVSVVQDSVNISGQNTMNMVKVPECRLADELGGLWENSRFTDCCLCVAGQEFQAHKAILAARSPVFSAMFEHEMEESKKNRVEINDVEPEVFKEMMCFIYTGKAPNLDKMADDLLAAADKYALERLKVMCEDALCSNLSVENAAEILILADLHSADQLKTQAVDFINYHASDVLETSGWKSMVVSHPHLVAEAYRSLASAQCPFLGPPRKRLKQS
notes: also called SPOP-WT; Myc-SPOP
